Measurements: article PMC6412040

Columns and labels:
[1] = target: USP37^mUIM1,2,3 (Danio rerio USP37 312–927 with mutations in all three UIMs) (Danio rerio) (UniProt E7F6T8)
[2] = target: USP37^wt (isolated catalytic domain of USP37 from Danio rerio, residues 312–927) (Danio rerio) (UniProt E7F6T8)
USP37^wt (isolated catalytic domain of USP37 from Danio rerio, residues 312–927) (Danio rerio), sequence (E7F6T8 312-927): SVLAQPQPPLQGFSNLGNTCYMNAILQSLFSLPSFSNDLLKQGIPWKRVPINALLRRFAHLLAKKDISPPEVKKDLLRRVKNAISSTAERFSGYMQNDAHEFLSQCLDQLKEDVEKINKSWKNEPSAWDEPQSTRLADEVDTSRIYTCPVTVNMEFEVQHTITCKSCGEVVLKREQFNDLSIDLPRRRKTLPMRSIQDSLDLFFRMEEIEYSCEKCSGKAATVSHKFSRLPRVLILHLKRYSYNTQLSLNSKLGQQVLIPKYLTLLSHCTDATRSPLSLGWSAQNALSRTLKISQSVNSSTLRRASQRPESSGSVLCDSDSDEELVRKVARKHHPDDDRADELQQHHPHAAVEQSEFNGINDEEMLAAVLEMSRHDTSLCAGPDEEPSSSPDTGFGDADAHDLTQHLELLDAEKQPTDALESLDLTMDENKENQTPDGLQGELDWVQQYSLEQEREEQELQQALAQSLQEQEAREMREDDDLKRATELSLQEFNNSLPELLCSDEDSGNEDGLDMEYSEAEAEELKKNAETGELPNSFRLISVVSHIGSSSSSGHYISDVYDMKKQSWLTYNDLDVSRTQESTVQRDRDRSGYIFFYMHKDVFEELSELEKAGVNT

USP37^mUIM1,2,3 (Danio rerio USP37 312–927 with mutations in all three UIMs) (Danio rerio), sequence (E7F6T8 312-927 V680G/S684A/A774G/S778A/A796G/S800A): as the sequence (E7F6T8 312-927) above, with V369G, S373A, A463G, S467A, A485G, S489A counted along it

K63-linked di-Ub (from UniProt P0CG48 1-76; P0CG48 1-76) (complex)
KM of cleavage of K63-linked di-Ub (1 part IQF di-Ub, 4 parts unlabeled chain), Michaelis-Menten analysis, 12.5 nM enzyme [1]: 3.6 µM | kcat of cleavage of K63-linked di-Ub (1 part IQF di-Ub, 4 parts unlabeled chain), Michaelis-Menten analysis [1]: 0.008 s⁻¹ | KM of cleavage of K63-linked di-Ub (1 part IQF di-Ub, 4 parts unlabeled chain), Michaelis-Menten analysis, 12.5 nM enzyme [2]: 1.7 µM | kcat of cleavage of K63-linked di-Ub (1 part IQF di-Ub, 4 parts unlabeled chain), Michaelis-Menten analysis [2]: 0.027 s⁻¹

K48-linked di-Ub (from UniProt P0CG48 1-76; P0CG48 1-76) (complex)
KM of cleavage of K48-linked di-Ub (1 part IQF di-Ub, 4 parts unlabeled chain), Michaelis-Menten analysis, 1.25 nM enzyme [1]: 0.72 µM | kcat of cleavage of K48-linked di-Ub (1 part IQF di-Ub, 4 parts unlabeled chain), Michaelis-Menten analysis [1]: 0.015 s⁻¹ | KM of cleavage of K48-linked di-Ub (1 part IQF di-Ub, 4 parts unlabeled chain), Michaelis-Menten analysis, 1.25 nM enzyme [2]: 0.4 µM | kcat of cleavage of K48-linked di-Ub (1 part IQF di-Ub, 4 parts unlabeled chain), Michaelis-Menten analysis [2]: 0.23 s⁻¹

K11-linked di-Ub (from UniProt P0CG48 1-76; P0CG48 1-76) (complex)
KM of cleavage of K11-linked di-Ub (1 part IQF di-Ub, 4 parts unlabeled chain), Michaelis-Menten analysis, 25 nM enzyme [1]: 19 µM | kcat of cleavage of K11-linked di-Ub (1 part IQF di-Ub, 4 parts unlabeled chain), Michaelis-Menten analysis [1]: 0.072 s⁻¹ | KM of cleavage of K11-linked di-Ub (1 part IQF di-Ub, 4 parts unlabeled chain), Michaelis-Menten analysis, 25 nM enzyme [2]: 11 µM | kcat of cleavage of K11-linked di-Ub (1 part IQF di-Ub, 4 parts unlabeled chain), Michaelis-Menten analysis [2]: 0.19 s⁻¹
